Experimental data from patent publication US20130058939.

Target: mouse NMDA receptor NR1 subunit, P35438

B1: rt-PA (alteplase), recombinant human t-PA (protein)
chain: SYQVICRDEKTQMIYQQHQSWLRPVLRSNRVEYCWCNSGRAQCHSVPVKSCSEPRCFNGGTCQQALYFSDFVCQCPEGFAGKCCEIDTRATCYEDQGISYRGTWSTAESGAECTNWNSSALAQKPYSGRRPDAIRLGLGNHNYCRNPDRDSKPWCYVFKAGKYSSEFCSTPACSEGNSDCYFGNGSAYRGTHSLTESGASCLPWNSMILIGKVYTAQNPSAQALGLGKHNYCRNPDGDAKPWCHVLKNRRLTWEYCDVPSCSTCGLRQYSQPQFRIKGGLFADIASHPWQAAIFAKHRRSPGERFLCGGILISSCWILSAAHCFQERFPPHHLTVILGRTYRVVPGEEEQKFEVEKYIVHKEFDDDTYDNDIALLQLKSDSSRCAQESSVVRTVCLPPADLQLPDWTECELSGYGKHEALSPFYSERLKEAHVRLYPSSRCTSQHLLNRTVTDNMLCAGDTRSGGPQANLHDACQGDSGGPLVCLNDGRMTLVGIISWGLGCGQKDVPGVYTKVTNYLDWIRDNMRP
  net integrated increase in [Ca2+]i evoked by NMDA after 15 min exposure to t-PA (20 µg/ml): the net integrated increase in [Ca^2+]i (area under the curve expressed in arbitrary units) was enhanced by 37%
